According to patent US20100273676A1 (GENERAL HOSPITAL, published 2010):
Ends that are not written are not given here. * marks the point of attachment. FITC = O=C1OC2(c3ccc(O)cc3Oc3cc(O)ccc32)c2ccc(NC(=S)*)cc21

B1: FITC-CgPdr1pAD-30 (FITC-LGTLDEFVNKGDLNELYNSLWGDLFSDVYL) (peptide)
peptide: {FITC}-LGTLDEFVNKGDLNELYNSLWGDLFSDVYL
notes: also called FITC-labled-CgPdr1pAD-30; Fluorescein-tagged CgPdr1pAD-30 peptide
B2: Fluorescein-conjugated 15-amino acid CgPdr1pAD peptide (FITC-LYNSLWGDLFSDVYL) (peptide)
peptide: {FITC}-LYNSLWGDLFSDVYL
notes: also called short Fluorescein-tagged CgPdr1pAD peptide

Experiments:
[1] = biological target: GST (glutathione S-transferase) (UniProt P08515 1-218 = GST); experiment: fluorescence polarization
Sequence of GST (glutathione S-transferase) (P08515 whole entry, the tested form may be a part): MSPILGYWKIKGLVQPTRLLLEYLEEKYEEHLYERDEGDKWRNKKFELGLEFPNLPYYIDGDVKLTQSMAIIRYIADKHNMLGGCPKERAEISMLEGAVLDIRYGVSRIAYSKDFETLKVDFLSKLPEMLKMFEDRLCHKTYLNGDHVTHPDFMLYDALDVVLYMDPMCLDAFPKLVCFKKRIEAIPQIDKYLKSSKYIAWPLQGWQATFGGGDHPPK

[2] = biological target: T1, GST-tagged CgGal11Ap KIX domain (amino acids 1-86) (C. glabrata, UniProt P08515 1-218 = GST); experiment: fluorescence polarization, salt and pH adjusted
T1 sequence (P08515 whole entry, the tested form may be a part): as above

[3] = biological target: T1, GST-tagged CgGal11Ap KIX domain (amino …); experiment: fluorescence polarization, FITC peptide with increasing GST-CgGal11Ap KIX
[4] = biological target: T1, GST-tagged CgGal11Ap KIX domain (amino …); experiment: fluorescence anisotropy/polarization, FITC peptide with increasing GST-CgGal11Ap KIX

Binder	binding result [1]	Kd [2]	Kd [3]	Kd [4]
B1	no binding	~0.7 µM	~0.78 µM	~2 µM
B2				~210 µM
